Laboratory results as given in patent US20210017280A1 (EUREKA THERAPEUTICS, published 2021).

T1: full-length human CD22 (human, UniProt P20273 20-847)
T1 construct: CD22 on the cell surface: natural on Raji and NALM-6 cells, introduced in Jurkat cells (full-length) and in K562+CD22 cells; The K562 construct is not described further; also called Jurkat-CD22-full; CD22 on Raji, NALM-6 and K562+CD22 cells
T1 sequence: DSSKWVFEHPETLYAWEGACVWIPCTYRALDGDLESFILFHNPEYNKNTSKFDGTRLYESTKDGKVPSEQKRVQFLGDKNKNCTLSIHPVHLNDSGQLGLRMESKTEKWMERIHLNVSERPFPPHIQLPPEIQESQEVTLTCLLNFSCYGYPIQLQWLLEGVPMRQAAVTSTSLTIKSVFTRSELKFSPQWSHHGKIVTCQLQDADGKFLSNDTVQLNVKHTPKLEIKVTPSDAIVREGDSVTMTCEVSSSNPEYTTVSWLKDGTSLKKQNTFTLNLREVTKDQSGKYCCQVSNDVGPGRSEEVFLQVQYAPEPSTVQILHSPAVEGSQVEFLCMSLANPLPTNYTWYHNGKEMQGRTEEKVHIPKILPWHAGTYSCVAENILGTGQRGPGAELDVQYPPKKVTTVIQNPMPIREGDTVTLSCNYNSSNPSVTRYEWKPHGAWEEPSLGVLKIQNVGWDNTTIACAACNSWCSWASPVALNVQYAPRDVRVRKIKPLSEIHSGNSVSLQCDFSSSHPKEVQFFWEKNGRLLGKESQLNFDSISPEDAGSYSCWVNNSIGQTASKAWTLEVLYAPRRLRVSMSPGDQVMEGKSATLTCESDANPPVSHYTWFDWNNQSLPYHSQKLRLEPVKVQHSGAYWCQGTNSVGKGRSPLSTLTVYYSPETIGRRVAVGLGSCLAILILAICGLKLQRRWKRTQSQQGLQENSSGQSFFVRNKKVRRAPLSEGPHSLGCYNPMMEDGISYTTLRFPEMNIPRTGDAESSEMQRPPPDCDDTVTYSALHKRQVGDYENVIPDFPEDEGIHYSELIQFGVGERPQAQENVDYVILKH

T2: domains 5-7 of CD22 conjugated to green fluorescent protein, expressed in Jurkat cells (human, UniProt P20273 414-687)
T2 construct: also called Jurkat-CD22 (D5-D7)-GFP; not shown: membrane anchor and green fluorescent protein (GFP) fusion
T2 sequence: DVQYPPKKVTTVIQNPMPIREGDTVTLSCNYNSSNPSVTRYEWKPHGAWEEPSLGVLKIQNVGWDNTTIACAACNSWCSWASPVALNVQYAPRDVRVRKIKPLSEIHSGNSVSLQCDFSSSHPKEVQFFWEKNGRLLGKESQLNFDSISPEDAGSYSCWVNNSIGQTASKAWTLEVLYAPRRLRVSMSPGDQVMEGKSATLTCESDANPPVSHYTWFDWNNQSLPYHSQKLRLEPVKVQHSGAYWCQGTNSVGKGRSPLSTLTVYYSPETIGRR

B1: phage clone 1 (anti-CD22 clone 1) (scFv, V domains shown)
VH: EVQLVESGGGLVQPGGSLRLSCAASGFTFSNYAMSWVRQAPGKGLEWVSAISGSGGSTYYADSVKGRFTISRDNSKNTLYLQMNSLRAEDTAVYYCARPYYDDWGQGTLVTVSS
VL: QSVVTQPPSVSAAPGQKVTISCSGSSSNIGNNYVSWYQQLPGTAPKLLIYENNKRPSGIPDRFSGSKSGTSATLGITGLQTGDEADYYCGTWDSSLSAGAVFGGGTKLTVLG
B2: phage clone 2 (anti-CD22 clone 2) (scFv, V domains shown)
VH: QVQLVESGGGLVQPGGSLRLSCAASGFTFSNYAMSWVRQAPGKGLEWVSSISGSGGSTYYADSVKGRFTISRDTSKNTLYLQMNSLRAEDTAVYYCARYGSAAWMDSWGQGTLVTVSS
VL: DIQLTQSPSSLSTSVGDRVTITCQASHDIRNYLNWYQQKPGKAPNLLIYAASNLQTGVPSRFSGRGSGTDFTLTISSLQPEDIATYYCQQYDGLPLTFGQGTRLEIKR

Tests used:
full-length human CD22 [1] = target: T1, full-length human CD22; experiment: flow cytometry, phage clone on Raji cells and Jurkat cells expressing full-length CD22
[2] = target: T2, domains 5-7 of CD22 conjugated to green …; experiment: flow cytometry, phage clone on Jurkat cells expressing domains 5-7 of CD22-GFP
full-length human CD22 [3] = target: T1, full-length human CD22; experiment: flow cytometry, phage clone on NALM-6 cells
[4] = target: T2, domains 5-7 of CD22 conjugated to green …; experiment: flow cytometry, phage clone on cells

| Binder | binding result (full-length human CD22 [1]) | binding result [2] | binding result (full-length human CD22 [3]) | binding result [4] |
| --- | --- | --- | --- | --- |
| B1 | binds | binds | – | – |
| B2 | – | – | binds | binds |
